What all share (assay): fluorescence anisotropy
Series [1] has as its system GyrA CTD lacking GyrA-box (Bacillus subtilis). To be noted: CTD: 50 mM Tris-HCl, 40 mM KCl (Results say NaCl), 10 mM MgCl2, 25 C (pH not stated), 100 nM DNA; gyrase: 50 mM Tris-HCl pH 7.5, 100 mM KCl, 10 mM MgCl2, 37 C ….
The test system of series [2] is GyrA CTD (Bacillus subtilis). To be noted: CTD: 50 mM Tris-HCl, 40 mM KCl (Results say NaCl), 10 mM MgCl2, 25 C (pH not stated), 100 nM DNA; gyrase: 50 mM Tris-HCl pH 7.5, 100 mM KCl, 10 mM MgCl2, 37 C ….
The subject of series [3] is GyrA;GyrB (Bacillus subtilis;Bacillus subtilis). Conditions: 4 uM GyrB, 10 mM Mg2+, 37 C; CTD: 50 mM Tris-HCl, 40 mM KCl (Results say NaCl), 10 mM MgCl2, 25 C (pH not stated), 100 nM DNA; gyrase: 50 mM Tris-HCl pH 7.5, 100 mM KCl, 10 mM MgCl2, 37 C ….
Series [4] deals with GyrA lacking GyrA-box (GyrA_dA);GyrB (Bacillus subtilis;Bacillus subtilis). Conditions: 4 uM GyrB, 10 mM Mg2+, 37 C; CTD: 50 mM Tris-HCl, 40 mM KCl (Results say NaCl), 10 mM MgCl2, 25 C (pH not stated), 100 nM DNA; gyrase: 50 mM Tris-HCl pH 7.5, 100 mM KCl, 10 mM MgCl2, 37 C ….

pKd: −log10 of the molar value.

With 40-bp DNA wrapping substrate, the pKd in series [1] and in series [2] was 4.88 each time.
Take 60-bp gate-DNA: the pKd in series [3] is 7.20; in series [4], 7.30.

The values are drawn from PMC3510516.
